Test results from PMC9482650, “Quantitative fragmentomics allow affinity mapping of interactomes” (Nature Communications, 2022).

Columns and labels:
Test in all cases: holdup assay
Parameters in all cases: key: below the threshold = too weak to quantify, mostly under pKd 3.1 to 4
Conditions in all cases: plain residues with an end cap or a label only (N-terminal biotin on a linker: ado-ado)
NHERF3_3, Q5T2W1 = molecular target: T1, NHERF3_3, Q5T2W1
T1 sequence (Q5T2W1 238-333, limits assumed, looked up): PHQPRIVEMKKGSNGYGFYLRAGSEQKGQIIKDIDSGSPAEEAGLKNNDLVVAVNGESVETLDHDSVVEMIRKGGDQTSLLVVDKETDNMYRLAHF

MPDZ_12, O75970 = molecular target: T2, MPDZ_12, O75970
T2 sequence (O75970 1857-1958, limits assumed, looked up): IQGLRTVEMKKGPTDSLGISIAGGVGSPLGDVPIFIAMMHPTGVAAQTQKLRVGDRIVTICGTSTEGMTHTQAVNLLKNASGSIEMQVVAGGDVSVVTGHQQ

LIMK2, P53671 = molecular target: LIMK2, P53671
Chain of LIMK2, P53671 (P53671 143-248): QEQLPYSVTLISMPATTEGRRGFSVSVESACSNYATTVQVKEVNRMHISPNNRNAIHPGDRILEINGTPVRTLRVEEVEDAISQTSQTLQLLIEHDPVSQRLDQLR

ARHGEF11, O15085 = molecular target: T3, ARHGEF11, O15085
T3 sequence (O15085 42-136, limits assumed, looked up): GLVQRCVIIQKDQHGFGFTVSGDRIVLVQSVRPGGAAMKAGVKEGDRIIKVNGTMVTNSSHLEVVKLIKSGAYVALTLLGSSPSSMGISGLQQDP

DVL3, Q92997 = molecular target: T4, DVL3, Q92997
T4 sequence (Q92997 244-331, limits assumed, looked up): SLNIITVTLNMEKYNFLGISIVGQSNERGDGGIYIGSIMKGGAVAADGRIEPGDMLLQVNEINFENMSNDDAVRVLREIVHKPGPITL

Inadl_3, Q8NI35 = molecular target: Inadl_3, Q8NI35
Chain of Inadl_3, Q8NI35 (Q8NI35 359-469): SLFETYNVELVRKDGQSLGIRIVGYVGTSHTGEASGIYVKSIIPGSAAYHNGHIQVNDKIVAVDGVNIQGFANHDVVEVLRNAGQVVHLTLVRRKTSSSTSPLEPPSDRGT

GOPC, Q9HD26 = molecular target: GOPC, Q9HD26
APBA2_1, Q99767 = molecular target: T5, APBA2_1, Q99767
T5 sequence (Q99767 563-664, limits assumed, looked up): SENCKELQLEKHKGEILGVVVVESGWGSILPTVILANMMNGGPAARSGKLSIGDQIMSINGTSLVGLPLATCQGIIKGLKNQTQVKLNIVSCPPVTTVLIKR

GRIP2_3, Q9C0E4 = molecular target: GRIP2_3, Q9C0E4
Chain of GRIP2_3, Q9C0E4 (Q9C0E4 238-339): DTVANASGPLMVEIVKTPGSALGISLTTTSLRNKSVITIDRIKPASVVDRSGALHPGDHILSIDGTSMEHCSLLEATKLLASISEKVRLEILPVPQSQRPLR

APBA1_2, Q02410 = molecular target: T6, APBA1_2, Q02410
T6 sequence (Q02410 742-832, limits assumed, looked up): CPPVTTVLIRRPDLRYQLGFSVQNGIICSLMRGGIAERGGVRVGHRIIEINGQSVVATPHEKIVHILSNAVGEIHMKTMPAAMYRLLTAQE

DLG5_1, Q8TDM6 = molecular target: DLG5_1, Q8TDM6
Chain of DLG5_1, Q8TDM6 (Q8TDM6 617-713): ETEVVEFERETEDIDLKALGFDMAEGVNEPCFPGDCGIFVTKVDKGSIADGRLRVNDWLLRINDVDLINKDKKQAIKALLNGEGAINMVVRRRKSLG

MPP7, Q5T2T1 = molecular target: T7, MPP7, Q5T2T1
T7 sequence (Q5T2T1 134-230, limits assumed, looked up): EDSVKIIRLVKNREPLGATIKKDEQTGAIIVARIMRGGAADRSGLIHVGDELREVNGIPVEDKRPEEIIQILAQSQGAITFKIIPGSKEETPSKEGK

SCRIB_1, Q14160 = molecular target: SCRIB_1, Q14160
Chain of SCRIB_1, Q14160 (Q14160 718-814): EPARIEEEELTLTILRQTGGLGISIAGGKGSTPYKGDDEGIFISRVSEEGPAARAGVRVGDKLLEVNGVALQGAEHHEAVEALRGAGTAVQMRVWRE

TJP1_2, Q07157 = molecular target: TJP1_2, Q07157
Chain of TJP1_2, Q07157 (Q07157 181-274): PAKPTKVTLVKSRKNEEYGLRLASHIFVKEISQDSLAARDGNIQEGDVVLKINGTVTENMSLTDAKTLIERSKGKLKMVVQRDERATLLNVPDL

HTRA2, O43464 = molecular target: HTRA2, O43464
Chain of HTRA2, O43464 (O43464 355-458): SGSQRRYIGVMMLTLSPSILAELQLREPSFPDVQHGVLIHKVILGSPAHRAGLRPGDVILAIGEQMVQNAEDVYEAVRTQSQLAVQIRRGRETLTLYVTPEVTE

MPP2, Q14168 = molecular target: T8, MPP2, Q14168
T8 sequence (Q14168 180-250, limits assumed, looked up): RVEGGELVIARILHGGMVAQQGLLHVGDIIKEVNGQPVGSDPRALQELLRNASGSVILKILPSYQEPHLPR

PDZD7_3, Q9H5P4 = molecular target: T9, PDZD7_3, Q9H5P4
T9 sequence (Q9H5P4 857-944, limits assumed, looked up): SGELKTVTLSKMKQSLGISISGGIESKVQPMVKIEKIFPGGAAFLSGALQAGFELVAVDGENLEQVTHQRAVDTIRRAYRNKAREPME

GRIP1_7, Q9Y3R0 = molecular target: T10, GRIP1_7, Q9Y3R0
T10 sequence (Q9Y3R0 999-1096, limits assumed, looked up): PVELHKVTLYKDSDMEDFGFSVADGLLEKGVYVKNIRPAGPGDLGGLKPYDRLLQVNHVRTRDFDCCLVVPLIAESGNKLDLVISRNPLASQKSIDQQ

HTRA4, P83105 = molecular target: T11, HTRA4, P83105
T11 sequence (P83105 378-476, limits assumed, looked up): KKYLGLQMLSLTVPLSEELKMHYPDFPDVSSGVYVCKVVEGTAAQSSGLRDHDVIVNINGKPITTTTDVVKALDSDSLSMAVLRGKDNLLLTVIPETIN

MAST2, Q6P0Q8 = molecular target: MAST2, Q6P0Q8
Chain of MAST2, Q6P0Q8 (Q6P0Q8 1099-1202): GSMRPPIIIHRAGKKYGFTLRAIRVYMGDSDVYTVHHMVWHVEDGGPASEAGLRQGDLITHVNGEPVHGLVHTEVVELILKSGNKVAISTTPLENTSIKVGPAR

TIAM2, Q8IVF5 = molecular target: T12, TIAM2, Q8IVF5
T12 sequence (Q8IVF5 885-986, limits assumed, looked up): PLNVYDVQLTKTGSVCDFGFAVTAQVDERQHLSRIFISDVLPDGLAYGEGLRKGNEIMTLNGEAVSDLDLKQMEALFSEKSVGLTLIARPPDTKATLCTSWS

SNTG1, Q9NSN8 = molecular target: T13, SNTG1, Q9NSN8
T13 sequence (Q9NSN8 52-150, limits assumed, looked up): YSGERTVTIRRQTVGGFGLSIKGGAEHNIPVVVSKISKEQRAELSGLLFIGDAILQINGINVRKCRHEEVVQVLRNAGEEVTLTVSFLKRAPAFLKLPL

ARHGEF12, Q9NZN5-2 = molecular target: ARHGEF12, Q9NZN5-2
Chain of ARHGEF12, Q9NZN5-2 (Q9NZN5 other isoform, or with tags, fused parts or gaps): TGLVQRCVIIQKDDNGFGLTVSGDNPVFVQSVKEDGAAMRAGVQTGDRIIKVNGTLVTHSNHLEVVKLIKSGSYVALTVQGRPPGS

LNX2_2, Q8N448 = molecular target: T14, LNX2_2, Q8N448
T14 sequence (Q8N448 334-432, limits assumed, looked up): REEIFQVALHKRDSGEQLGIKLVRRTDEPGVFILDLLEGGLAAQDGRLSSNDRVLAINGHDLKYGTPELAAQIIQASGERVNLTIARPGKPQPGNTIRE

Binder | pKd (NHERF3_3, Q5T2W1) | pKd (MPDZ_12, O75970) | pKd (LIMK2, P53671) | pKd (ARHGEF11, O15085) | pKd (DVL3, Q92997) | pKd (Inadl_3, Q8NI35) | pKd (GOPC, Q9HD26) | pKd (APBA2_1, Q99767) | pKd (GRIP2_3, Q9C0E4) | pKd (APBA1_2, Q02410) | pKd (DLG5_1, Q8TDM6) | pKd (MPP7, Q5T2T1) | pKd (SCRIB_1, Q14160) | pKd (TJP1_2, Q07157) | pKd (HTRA2, O43464) | pKd (MPP2, Q14168) | pKd (PDZD7_3, Q9H5P4) | pKd (GRIP1_7, Q9Y3R0) | pKd (HTRA4, P83105) | pKd (MAST2, Q6P0Q8) | further results
QPCFNKLFPL [LPXN, O60711] | below the threshold | below the threshold | below the threshold | below the threshold | below the threshold | below the threshold | below the threshold | below the threshold | below the threshold | 3.63 | below the threshold | 4.05 | below the threshold | below the threshold | 4.1 | below the threshold | below the threshold | below the threshold | 3.95 | 4.75 | pKd (TIAM2, Q8IVF5): below the threshold; pKd (SNTG1, Q9NSN8): below the threshold; pKd (ARHGEF12, Q9NZN5-2): 3.56; pKd (LNX2_2, Q8N448): below the threshold
SSALYGESDL [ACTN2, P35609] | below the threshold | below the threshold | below the threshold | below the threshold | below the threshold | below the threshold | below the threshold | below the threshold | below the threshold | below the threshold | below the threshold | below the threshold | 4.23 | below the threshold | below the threshold | below the threshold | below the threshold | below the threshold | below the threshold | 5.52 | pKd (TIAM2, Q8IVF5): 4.18; pKd (SNTG1, Q9NSN8): 4.12; pKd (ARHGEF12, Q9NZN5-2): 4.06; pKd (LNX2_2, Q8N448): below the threshold
LPHPHSTTRV [NLGN2, Q8NFZ4] | below the threshold | below the threshold | below the threshold | 3.96 | below the threshold | below the threshold | 4.28 | below the threshold | 3.52 | below the threshold | below the threshold | below the threshold | below the threshold | below the threshold | below the threshold | below the threshold | 4.26 | below the threshold | 3.97 | 5.19 | pKd (TIAM2, Q8IVF5): below the threshold; pKd (SNTG1, Q9NSN8): below the threshold; pKd (ARHGEF12, Q9NZN5-2): 3.84; pKd (LNX2_2, Q8N448): 3.51
QGLAERISVL [PRKD2, Q9BZL6] | below the threshold | below the threshold | below the threshold | 4.77 | below the threshold | 3.64 | 3.98 | below the threshold | below the threshold | 4.05 | below the threshold | below the threshold | 3.77 | below the threshold | below the threshold | below the threshold | 5.21 | below the threshold | 4.06 | 5.53 | pKd (TIAM2, Q8IVF5): below the threshold; pKd (SNTG1, Q9NSN8): 3.54; pKd (ARHGEF12, Q9NZN5-2): 5.06; pKd (LNX2_2, Q8N448): below the threshold
GQEEQVTTRL [TRPC5, Q9UL62] | 4.65 | below the threshold | below the threshold | 4.37 | below the threshold | below the threshold | 4.83 | below the threshold | below the threshold | 3.58 | below the threshold | below the threshold | 3.79 | below the threshold | below the threshold | below the threshold | 4.89 | below the threshold | below the threshold | 5.62 | pKd (TIAM2, Q8IVF5): 3.65; pKd (SNTG1, Q9NSN8): below the threshold; pKd (ARHGEF12, Q9NZN5-2): 4.9; pKd (LNX2_2, Q8N448): below the threshold
PRISRSQSEL [CCDC134, Q9H6E4] | below the threshold | below the threshold | below the threshold | 3.88 | below the threshold | below the threshold | below the threshold | below the threshold | below the threshold | below the threshold | below the threshold | below the threshold | below the threshold | below the threshold | below the threshold | below the threshold | below the threshold | below the threshold | below the threshold | 5.76 | pKd (TIAM2, Q8IVF5): 3.86; pKd (SNTG1, Q9NSN8): below the threshold; pKd (ARHGEF12, Q9NZN5-2): 4.27; pKd (LNX2_2, Q8N448): below the threshold
